Experimental data reported in publication PMC10397247.
Values belong to the binder of their own block, whether it stands above or below them.

Columns and labels:
4H355-AA = molecular target: T1, 4H355-AA; experiment: two-hybrid library CCmax;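 also: natural log of median RNA to DNA barcode read ratio; higher means stronger binding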
T1 chain: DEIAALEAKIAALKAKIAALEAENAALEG

4H3651-AA = molecular target: T2, 4H3651-AA; experiment: two-hybrid library CCmax; details: mean of both orientations;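 also: natural log of median RNA to DNA barcode read ratio; higher means stronger binding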
T2 chain: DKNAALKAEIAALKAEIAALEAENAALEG

4H3705-AA = molecular target: T3, 4H3705-AA; experiment: two-hybrid library CCmax; details: mean of both orientations;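 also: natural log of median RNA to DNA barcode read ratio; higher means stronger binding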
T3 chain: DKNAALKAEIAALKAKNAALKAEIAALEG

4H3782-AA = molecular target: T4, 4H3782-AA; experiment: two-hybrid library CCmax; details: mean of both orientations;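 also: natural log of median RNA to DNA barcode read ratio; higher means stronger binding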
T4 chain: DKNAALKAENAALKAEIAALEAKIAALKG

4H465-AA = molecular target: T5, 4H465-AA; experiment: two-hybrid library CCmax; details: mean of both orientations;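 also: natural log of median RNA to DNA barcode read ratio; higher means stronger binding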
T5 chain: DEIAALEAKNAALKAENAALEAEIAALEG

4H486-AA = molecular target: T6, 4H486-AA; experiment: two-hybrid library CCmax; details: mean of both orientations;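 also: natural log of median RNA to DNA barcode read ratio; higher means stronger binding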
T6 chain: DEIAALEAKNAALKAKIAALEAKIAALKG

4H535-AA = molecular target: T7, 4H535-AA; experiment: two-hybrid library CCmax
T7 chain: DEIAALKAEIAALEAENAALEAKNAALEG

4H58-AA = molecular target: T8, 4H58-AA; experiment: two-hybrid library CCmax; details: mean of both orientations
T8 chain: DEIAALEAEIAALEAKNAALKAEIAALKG

4H895-AA = molecular target: T9, 4H895-AA; experiment: two-hybrid library CCmax; details: mean of both orientations
T9 chain: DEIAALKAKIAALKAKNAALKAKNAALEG

4H_APH = molecular target: T10, 4H_APH; experiment: two-hybrid library CCmax
T10 chain: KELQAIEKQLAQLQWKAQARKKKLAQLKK

4H_BCR = molecular target: T11, 4H_BCR; experiment: two-hybrid library CCmax; details: mean of both orientations
T11 chain: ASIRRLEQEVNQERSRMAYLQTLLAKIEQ

4H_GCN4 = experiment: two-hybrid library CCmax
Chain of 4H_GCN4 (chain, as listed by the source): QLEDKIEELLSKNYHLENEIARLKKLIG

GCN2_T = experiment: two-hybrid library CCmax
P2-AA-12HAA-R = molecular target: T12, P2-AA-12HAA-R; experiment: two-hybrid library CCmax
T12 chain: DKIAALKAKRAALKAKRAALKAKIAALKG

P9bH1 = molecular target: T13, P9bH1; experiment: two-hybrid library CCNG1
T13 chain: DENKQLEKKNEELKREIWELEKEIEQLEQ

O4-bA = molecular target: T14, O4-bA; experiment: two-hybrid library CCNG1
T14 chain: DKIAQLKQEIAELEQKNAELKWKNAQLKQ

O5-bA = molecular target: T15, O5-bA; experiment: two-hybrid library CCNG1
T15 chain: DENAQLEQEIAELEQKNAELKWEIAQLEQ

O6-bA = molecular target: T16, O6-bA; experiment: two-hybrid library CCNG1
T16 chain: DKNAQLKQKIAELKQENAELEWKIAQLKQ

O7-bA = molecular target: T17, O7-bA; experiment: two-hybrid library CCNG1
T17 chain: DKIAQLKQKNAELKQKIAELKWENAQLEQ

O8-bA = molecular target: T18, O8-bA; experiment: two-hybrid library CCNG1
T18 chain: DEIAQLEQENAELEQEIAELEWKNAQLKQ

O9-bA = molecular target: T19, O9-bA; experiment: two-hybrid library CCNG1
T19 chain: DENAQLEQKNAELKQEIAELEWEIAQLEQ

4H687-AA = molecular target: T20, 4H687-AA; experiment: two-hybrid library CCmax
T20 chain: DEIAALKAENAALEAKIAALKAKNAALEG

4H717-AA = molecular target: T21, 4H717-AA; experiment: two-hybrid library CCmax; details: mean of both orientations
T21 chain: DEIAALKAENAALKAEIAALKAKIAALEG

4H797-AA = molecular target: T22, 4H797-AA; experiment: two-hybrid library CCmax
T22 chain: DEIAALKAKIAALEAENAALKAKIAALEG

4H883-AA = molecular target: T23, 4H883-AA; experiment: two-hybrid library CCmax; details: mean of both orientations
T23 chain: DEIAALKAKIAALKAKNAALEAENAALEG

4H918-AA = molecular target: T24, 4H918-AA; experiment: two-hybrid library CCmax; details: mean of both orientations
T24 chain: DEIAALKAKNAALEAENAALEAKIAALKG

4H953-AA = molecular target: T25, 4H953-AA; experiment: two-hybrid library CCmax; details: mean of both orientations
T25 chain: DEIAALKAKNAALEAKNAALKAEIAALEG

4H967-AA = molecular target: T26, 4H967-AA; experiment: two-hybrid library CCmax; details: mean of both orientations
T26 chain: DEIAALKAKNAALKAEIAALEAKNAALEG

4H3364-bN = molecular target: T27, 4H3364-bN; experiment: two-hybrid library CCNG1
T27 chain: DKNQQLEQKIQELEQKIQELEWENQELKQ

4H3381-bN = molecular target: T28, 4H3381-bN; experiment: two-hybrid library CCNG1
T28 chain: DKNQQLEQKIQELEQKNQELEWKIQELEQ

4H349-bN = molecular target: T29, 4H349-bN; experiment: two-hybrid library CCNG1
T29 chain: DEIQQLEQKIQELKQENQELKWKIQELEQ

4H56-bN = molecular target: T30, 4H56-bN; experiment: two-hybrid library CCNG1
T30 chain: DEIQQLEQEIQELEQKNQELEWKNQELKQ

4H730-bN = molecular target: T31, 4H730-bN; experiment: two-hybrid library CCNG1
T31 chain: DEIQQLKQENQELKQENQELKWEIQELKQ

4H796-bN = molecular target: T32, 4H796-bN; experiment: two-hybrid library CCNG1
T32 chain: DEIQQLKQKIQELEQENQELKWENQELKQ

4H932-bN = molecular target: T33, 4H932-bN; experiment: two-hybrid library CCNG1
T33 chain: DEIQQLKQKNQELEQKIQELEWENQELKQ

4H949-bN = molecular target: T34, 4H949-bN; experiment: two-hybrid library CCNG1
T34 chain: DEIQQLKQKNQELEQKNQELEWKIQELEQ

4H2699-AA = molecular target: T35, 4H2699-AA; experiment: two-hybrid library CCmax
T35 chain: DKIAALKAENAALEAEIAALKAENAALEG

4H2728-AA = molecular target: T36, 4H2728-AA; experiment: two-hybrid library CCmax; details: mean of both orientations
T36 chain: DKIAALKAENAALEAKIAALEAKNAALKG

4H2774-AA = molecular target: T37, 4H2774-AA; experiment: two-hybrid library CCmax; details: mean of both orientations
T37 chain: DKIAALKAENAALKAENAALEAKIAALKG

4H2903-AA = molecular target: T38, 4H2903-AA; experiment: two-hybrid library CCmax; details: mean of both orientations
T38 chain: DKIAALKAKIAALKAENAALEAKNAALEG

4H2961-AA = molecular target: T39, 4H2961-AA; experiment: two-hybrid library CCmax; details: mean of both orientations
T39 chain: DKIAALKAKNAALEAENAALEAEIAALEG

4H3049-AA = molecular target: T40, 4H3049-AA; experiment: two-hybrid library CCmax; details: mean of both orientations
T40 chain: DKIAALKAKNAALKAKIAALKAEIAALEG

4H3129-AA = molecular target: T41, 4H3129-AA; experiment: two-hybrid library CCmax; details: mean of both orientations
T41 chain: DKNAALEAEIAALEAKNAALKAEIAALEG

4H341-AA = molecular target: T42, 4H341-AA; experiment: two-hybrid library CCmax; details: mean of both orientations
T42 chain: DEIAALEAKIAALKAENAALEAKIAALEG

4H3414-AA = molecular target: T43, 4H3414-AA; experiment: two-hybrid library CCmax; details: mean of both orientations
T43 chain: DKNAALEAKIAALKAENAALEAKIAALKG

4H3595-AA = molecular target: T44, 4H3595-AA; experiment: two-hybrid library CCmax; details: mean of both orientations
T44 chain: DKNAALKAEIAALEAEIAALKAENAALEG

4H3629-AA = molecular target: T45, 4H3629-AA; experiment: two-hybrid library CCmax; details: mean of both orientations
T45 chain: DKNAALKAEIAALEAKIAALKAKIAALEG

4H380-AA = molecular target: T46, 4H380-AA; experiment: two-hybrid library CCmax; details: mean of both orientations
T46 chain: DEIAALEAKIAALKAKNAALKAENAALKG

4H3939-AA = molecular target: T47, 4H3939-AA; experiment: two-hybrid library CCmax; details: mean of both orientations
T47 chain: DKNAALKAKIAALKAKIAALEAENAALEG

4H3969-AA = molecular target: T48, 4H3969-AA; experiment: two-hybrid library CCmax; details: mean of both orientations
T48 chain: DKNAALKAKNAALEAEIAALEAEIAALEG

4H446-AA = molecular target: T49, 4H446-AA; experiment: two-hybrid library CCmax; details: mean of both orientations
T49 chain: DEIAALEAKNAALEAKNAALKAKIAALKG

4H464-AA = molecular target: T50, 4H464-AA; experiment: two-hybrid library CCmax; details: mean of both orientations
T50 chain: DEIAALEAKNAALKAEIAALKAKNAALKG

4H483-AA = molecular target: T51, 4H483-AA; experiment: two-hybrid library CCmax; details: mean of both orientations
T51 chain: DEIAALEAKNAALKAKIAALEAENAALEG

4H63-AA = molecular target: T52, 4H63-AA; experiment: two-hybrid library CCmax; details: mean of both orientations
T52 chain: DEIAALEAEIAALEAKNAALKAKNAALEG

4H2760-bN = molecular target: T53, 4H2760-bN; experiment: two-hybrid library CCNG1
T53 chain: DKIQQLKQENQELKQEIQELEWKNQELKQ

4H2859-bN = molecular target: T54, 4H2859-bN; experiment: two-hybrid library CCNG1
T54 chain: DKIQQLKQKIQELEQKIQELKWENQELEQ

4H2931-bN = molecular target: T55, 4H2931-bN; experiment: two-hybrid library CCNG1
T55 chain: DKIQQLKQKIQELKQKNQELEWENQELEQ

4H3041-bN = molecular target: T56, 4H3041-bN; experiment: two-hybrid library CCNG1
T56 chain: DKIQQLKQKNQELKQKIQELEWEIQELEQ

4H3297-bN = molecular target: T57, 4H3297-bN; experiment: two-hybrid library CCNG1
T57 chain: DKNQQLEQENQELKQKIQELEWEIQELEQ

Binder: DEIAALEAKIAALKAKIAALEAENAALEG [4H355-AA]
- interaction score (4H355-AA): 0.592
- interaction score (4H3651-AA): 0.086
- interaction score (4H3705-AA): -1.7
- interaction score (4H3782-AA): 0.393
- interaction score (4H465-AA): -1.96
- interaction score (4H486-AA): -0.342
- interaction score (4H535-AA): -0.775
- interaction score (4H58-AA): 1.08
- interaction score (4H895-AA): -0.0681
- interaction score (4H_APH): -0.88
- interaction score (4H_BCR): -1.56
- interaction score (4H_GCN4): -1.7
- interaction score (GCN2_T): -2.04
- interaction score (P2-AA-12HAA-R): -2.32

Binder: DKIAQLKQEIAELEQKNAELKWKNAQLKQ [O4-bA]
- interaction score (O4-bA): 0.158
- interaction score (O5-bA): -0.0834
- interaction score (O6-bA): 1.17
- interaction score (O7-bA): 0.351
- interaction score (O8-bA): -1.68
- interaction score (O9-bA): -0.232

Binder: DEIAALKAENAALEAKIAALKAKNAALEG [4H687-AA]
- interaction score (4H687-AA): -1.1
- interaction score (4H717-AA): -0.487
- interaction score (4H797-AA): -1.46
- interaction score (4H883-AA): -1.77
- interaction score (4H918-AA): -0.666
- interaction score (4H953-AA): -1.39
- interaction score (4H967-AA): 1.97

Binder: DKIAALKAENAALEAEIAALKAENAALEG [4H2699-AA]
- interaction score (4H2699-AA): -1.06
- interaction score (4H2728-AA): -0.707
- interaction score (4H2774-AA): -1.26
- interaction score (4H2903-AA): -1.69
- interaction score (4H2961-AA): -1.89
- interaction score (4H3049-AA): 0.526
- interaction score (4H3129-AA): 1.24
- interaction score (4H341-AA): -1.58
- interaction score (4H3414-AA): -0.748
- interaction score (4H3595-AA): -1.96
- interaction score (4H3629-AA): -0.9
- interaction score (4H3782-AA): -0.882
- interaction score (4H380-AA): -1.08
- interaction score (4H3939-AA): -1.77
- interaction score (4H3969-AA): -1.41
- interaction score (4H446-AA): -1.2
- interaction score (4H464-AA): 2.17
- interaction score (4H483-AA): 0.687
- interaction score (4H63-AA): -1.27

Second part, the binder after the results:

- interaction score (P9bH1): -0.482
Binder: DENKQLEKKNEELKREIWELEKEIEQLEQ [P9bH1]

- interaction score (4H3364-bN): 0.858
- interaction score (4H3381-bN): -0.731
- interaction score (4H349-bN): -0.763
- interaction score (4H56-bN): -0.197
- interaction score (4H730-bN): 0.217
- interaction score (4H796-bN): 0.309
- interaction score (4H932-bN): -1.67
- interaction score (4H949-bN): -1.23
- interaction score (O5-bA): -0.987
Binder: DKNQQLEQKIQELEQKIQELEWENQELKQ [4H3364-bN]

- interaction score (4H2760-bN): -0.578
- interaction score (4H2859-bN): 1.03
- interaction score (4H2931-bN): -0.107
- interaction score (4H3041-bN): -0.517
- interaction score (4H3297-bN): -1.61
- interaction score (4H3364-bN): -0.234
- interaction score (4H3381-bN): 0.638
- interaction score (4H349-bN): -1.63
- interaction score (4H56-bN): -0.482
- interaction score (4H730-bN): -0.45
- interaction score (4H796-bN): 0.11
- interaction score (4H932-bN): -1.77
- interaction score (4H949-bN): 0.472
Binder: DKIQQLKQENQELKQEIQELEWKNQELKQ [4H2760-bN]
